{"source": "patent US7803377B2", "about": "“Anti-DLL4 antibodies and methods using same” (Genentech, Inc., priority 2006, dated 2010)", "key": {"DLL4": {"biological_target": "DLL4 (Homo sapiens, UniProt Q9NR61)", "test": "ELISA binding to coated purified recombinant proteins", "details": "plates coated with recombinant protein 1 μg/ml", "method": "(§1) 96-well Nunc Maxisorp plates were coated with purified recombinant proteins as indicated (1 μg/ml). […] Bound antibodies were detected with anti-human antibody HRP conjugate using TMB as substrate and OD 450 nm absorbance measurement. Anti-HER2 and recombinant ErbB2-ECD were used as assay control (FIG. 11b)."}, "mouse DLL4": {"biological_target": "mouse DLL4 (Mus musculus, UniProt Q9JI71)", "sequence (Q9JI71 27-686)": "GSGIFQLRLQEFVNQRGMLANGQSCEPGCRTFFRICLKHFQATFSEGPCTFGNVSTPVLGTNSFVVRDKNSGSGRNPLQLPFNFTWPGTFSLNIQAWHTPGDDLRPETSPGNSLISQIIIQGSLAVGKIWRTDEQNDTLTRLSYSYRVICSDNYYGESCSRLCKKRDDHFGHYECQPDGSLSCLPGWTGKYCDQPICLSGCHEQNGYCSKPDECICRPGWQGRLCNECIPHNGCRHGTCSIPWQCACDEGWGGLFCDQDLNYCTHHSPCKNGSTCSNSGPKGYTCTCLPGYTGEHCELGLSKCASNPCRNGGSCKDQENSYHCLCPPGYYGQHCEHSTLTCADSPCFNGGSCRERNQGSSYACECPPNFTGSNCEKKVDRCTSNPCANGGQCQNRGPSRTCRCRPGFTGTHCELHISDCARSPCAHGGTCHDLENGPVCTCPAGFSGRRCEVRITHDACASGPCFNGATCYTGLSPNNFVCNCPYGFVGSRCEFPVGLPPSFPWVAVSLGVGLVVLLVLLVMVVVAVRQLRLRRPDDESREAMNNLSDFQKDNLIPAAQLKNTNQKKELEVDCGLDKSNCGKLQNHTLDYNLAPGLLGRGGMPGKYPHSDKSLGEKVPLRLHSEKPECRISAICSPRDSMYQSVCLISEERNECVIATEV", "test": "ELISA binding to coated purified recombinant proteins", "details": "plates coated with recombinant protein 1 μg/ml", "method": "as §1"}, "[1]": {"biological_target": "T1, endogenously expressed DLL4 (Homo sapiens, UniProt Q9NR61)", "T1 construct": "endogenous in cells; host or cells: HUVEC", "test": "FACS analysis of HUVECs transfected with control or DLL4-specific siRNA", "details": "antibody 2 μg/ml, binding reduced with DLL4 siRNA", "method": "RNA interference. SMARTpool small interfering RNA (siRNA) duplexes targeting human DLL4 and Si Control Non-Target siRNA #2 were purchased from Dharmacon. Transfection of siRNR duplexes (50 nM) was done with HUVECs at 40% confluency using OptiMEM-1® and Lipfectamine™ 2000 (Invitrogen). FACS analysis was done 48 hr after siRNA transfection. The sequences of the 4 anti-DLL4 SMART pool siRNA were as follows:\nFACS analysis of HUVECs transfected with control or DLL4-specific siRNA."}, "[2]": {"tested_on": "adult retinal vasculature", "test": "Adult mouse retina vasculature (ASMA and isolectin staining)", "assay_type": "in vivo", "details": "8 week-old mice, 10 mg/kg, twice weekly for two weeks", "excerpt": "FIG. 8: DLL4-mediated Notch signaling regulated EC differentiation. a, The lumen-like structures (white arrows) formed by HUVECs growing in fibrin gels were lost in the presence of anti-DLL4 antibody or DBZ. Instead, the spouts were highly packed with cells (black arrows). b, Regulation of TGFβ2 by Notch. Quantitative PCR analysis of TGFβ2 expression in response to, Notch blockade in 3-D fibrin gel culture of HUVECs for (7 d) by anti-DLL4 antibody or DBZ (left), or Notch activation in 2-D culture of HUVECs (36 hr) by immobilized DLL4 (right). c, Anti-DLL4 antibody blocks arterial development. Confocal images of neonatal mouse retinas stained with alpha smooth muscle actin (ASMA) and isolectin. Neonatal mice were treated as described in FIG. 1d. d, Confocal images of adult mouse retinas stained with ASMA and isolectin. 8 week-old mice were treated with PBS or anti-DLL4 antibody (10 mg/kg, twice weekly) for two weeks.\nThus, DLL4/Notch signaling is critical during active angiogenesis, but plays a less important role in normal vessel maintenance."}, "[3]": {"tested_on": "human melanoma MDA-MB-435", "test": "Tumor model MDA-MB-435 (mammary fat pad)", "assay_type": "in vivo, mouse", "details": "treatment started 14 days post tumor cell injection", "method": "(§2) Tumor models. Beige nude female mice of 8- to 10-week-old were used. To obtain subcutaneous tumors, mice were injected with 0.1 ml cell suspension containing 50% matrigel (BD Bioscience) into the right posterior flank. 5×10^6 human colon cancer HM7 cells, 10×10^6 human colon carcinoma Colo205 cells, 10×10^6 human lung carcinoma Calu6 cells, 10×10^6 human lung carcinoma MV-522 cells, 10×10^6 mouse leukemia WEHI-3 cells, 10×10^6 mouse lymphoma EL4 cells, 10×10^6 human ovarian cancer SK-OV-3 X1 cells, 10×06 mouse lung cancer LL2 cells, 10×10^6 leukemia/lymphoma EL4 cells, or 10×10^6 non-small lung cancer H1299 cells were injected into each mouse. For human melanoma MDA-MB-435 model, mice were injected into the mammary fat pad with 0.1 ml cell (5×10^6) suspension containing 50% matrigel. […] For the following tumor models, each test mouse received a subcutaneous tumor fragment (1 mm^3) implanted in the right flank: non-small lung cancer SKMES-1, human breast cancer MX-1, human colorectal cancer SW620 and human adenocarcinoma LS174T. The tumor growth was quantitated by caliper measurements. Tumor volume (mm^3) was determined by measuring the length (l) and width (w) and calculating the volume (V=lw2/2). 10 to 15 animals were included in each group. Statistical comparison of treatment groups was performed using two-tailed Student's t-test. […]"}, "[4]": {"tested_on": "human ovarian cancer SK-OV-3 X1 cells", "test": "Tumor model SK-OV-3X1", "assay_type": "in vivo, mouse", "details": "5 mg/kg, IP, twice weekly after establishment of the tumors", "method": "as §2"}, "[5]": {"tested_on": "non-small lung cancer SKMES-1", "test": "Tumor model SKMES-1", "assay_type": "in vivo, mouse", "details": "5 mg/kg, IP, twice weekly after establishment of the tumors", "method": "as §2"}, "small intestines": {"tested_on": "small intestines", "test": "Histology and immunohistochemistry of mouse intestines", "assay_type": "in vivo", "details": "anti-DLL4 antibody 10 mg/kg, twice weekly for 6 weeks", "method": "FIG. 10: DLL4/Notch was dispensable in the homeostasis of mouse intestine. Immunohistochemical studies of small intestines from control (a, d, g, j), anti-DLL4 antibody (10 mg/kg, twice weekly for 6 weeks) (b, e, h, k), and DBZ treated (30 μmol/kg daily for 5 days) (c, f, i, l) mice.\nHistology and immunohistochemistry of mouse intestines. Formalin-fixed and paraffin-embedded mouse small intestine tissues were sectioned at 3 μm thickness. Histochemical identification of intestinal cell types was performed with Alcian blue as recommended by the manufacturer (PolyScientific). For anti-Ki67 staining, sections were pretreated with Target Retrieval Solution (S1700, DAKO), and incubated with rabbit anti-Ki67 (1:200, clone SP6, Neomarkers). Secondary goat anti-rabbit at 7.5 µg/ml (Vector labs) was detected with the Vectastain ABC Elite Kit (Vector labs). All Ki67 stained sections were counterstained with Mayer's hematoxylin. For HES-1 staining, anti-rat HES-1 (clone NM1, MBL, International), followed by TSA-HRP, was used.\nA major concern about global inhibition of Notch is that it may be deleterious, given the pleiotropic roles of Notch signaling in regulating the homeostasis of postnatal self-renewal systems. For instance, Notch signaling is required to maintain undifferentiated crypt progenitor cells in intestines (van Es, J. H. et al. Nature 435, 959-63 (2005); Fre, S. et al. Nature 435, 964-8 (2005)). Indeed, γ-secretase inhibitors, which would indiscriminately block all Notch activities, cause unwanted side effects in rodents duo to a massive increase in goblet cells within the crypt compartment (Milano, J. et al. Toxicol Sci 82, 341-58 (2004); Wong, G. T. et al. J Biol Chem 279, 12876-82 (2004)). We examined the small intestines of mice treated with anti-DLL4 Mab by immunohistochemistry analyses."}}, "data": [{"substance": "YW26.82: affinity matured anti-DLL4 monoclonal antibody; HVR-H1/H2/H3 SEQ ID NO:1, 8, 9; HVR-L1/L2/L3 SEQ ID NO:10, 11, 18", "values": [{"measurement": "binding by ELISA", "setting": "DLL4", "result": "bound"}, {"measurement": "binding by ELISA", "setting": "mouse DLL4", "result": "bound"}, {"measurement": "binding to endogenously expressed DLL4 by FACS", "setting": "[1]", "result": "specifically bound to endogenously expressed DLL4"}, {"measurement": "impact on adult retinal vasculature", "setting": "[2]", "result": "no visible impact on adult retinal vasculature"}, {"measurement": "tumor growth", "setting": "[3]", "result": "inhibited tumors growing in mouse mammary fat pads"}, {"measurement": "tumor growth, single agent", "setting": "[4]", "result": "inhibited tumor growth alone"}, {"measurement": "tumor growth, single agent", "setting": "[5]", "result": "inhibited tumor growth alone"}, {"measurement": "epithelial crypt cell differentiation or proliferation in small intestine", "setting": "small intestines", "result": "entirely absent"}, {"measurement": "expression of Notch target gene HES-1 in transit amplifying (TA) population", "setting": "small intestines", "result": "did not alter the expression of the Notch target gene HES-1"}, {"measurement": "epithelial crypt cell differentiation or proliferation in small intestine", "setting": "small intestines; listed as anti-DLL4 Mab", "result": "no differences in epithelial crypt cell differentiation or proliferation profiles"}]}]}
